Laboratory results published in patent US20240294914A1, “COMPOSITIONS AND METHODS FOR TREATING HEPATITIS B VIRUS INFECTION” (priority 2021, published 2024).
Strand notation (5' to 3'): a small letter for the sugar, then the base; units joined by * are phosphorothioate-linked, units joined directly phosphodiester-linked; [ ] holds rarer units or linkages, { } end groups; capitals alone tell only the bases. m = 2'-O-methyl; r = 2'-OH (RNA)

Columns and labels:
HBV-infected cells = assay: Base editors with reduced off-target activity (BE4, ppApo, rrA3F): editing and HBsAg in HBV-infected cells; type: cell-based, Hepatitis B virus; settings: base editor in combination with gRNA37 and gRNA40
Description: FIG. 22 provides a bar graph showing base editing at the sites targeted by gRNA37 and gRNA40. Cells were contacted with BE4, ppApo, or rrA3F in combination with gRNA37 and gRNA40.
Thus, all three base editor systems had antiviral activity. The negative control (HBV) was untreated cells and the control (contr) was gRNA targeting the PCSK9 gene.
It may be advantageous to use base editors that have reduced off-target activity and lower non-specific effects (e.g., as compared to BE4) without compromising editing efficiencies. Thus, experiments were undertaken to evaluate the antiviral efficacy of base editor systems containing ppApo or rrA3F, which are described in Yu, et al. “Cytoxine base editors with minimized unguided DNA and RNA off-target events and high on-target activity,” Nature Communications, 11:2052 (2020), DOI: 10.1038/s41467-020-15887-5, the disclosure of which is incorporated herein by reference in its entirety for all purposes.

Hepatitis B virus [1] = assay: HBV minicircle (HBVcircle) mouse model: serum HBsAg, HBeAg, HBV DNA after LNP injection; type: in vivo
Description: Having established the efficacy of these base editing reagents in vitro, experiments were then undertaken to evaluate these same base editing reagents for antiviral efficacy in vivo using the HBV minicircle mouse model. […] After establishing HBV viral replication, hepatic delivery of the base editing reagents was achieved via systemic administration of lipid nanoparticles (LNPs) formulated with the following base editing reagents: CBE mRNA and HBV-targeting gRNAs (e.g., gRNA37 and gRNA40 (see Table 1)). The mice were administered a combination of base editors, where the combination was either gRNA37 and gRNA40 or gRNA37-HM and gRNA40-HM. The guides gRNA37-HM and gRNA40-HM each included heavily modified(HM) scafolds (see Table 1).
Table 23 below provides a summary of the experimental design used to evaluate the base editing reagents in vivo. The mice contained an HBVcircle polynucleotide that enabled HBV replication in vivo. See, for example Yan et al., J. Hepatol 2017 66:1149-1157 for a description of an exemplary mouse model. The mice were administered lipid nanoparticles (BL4 LNP) containing mRNA encoding BE4 (a cytidine base editor) and either the guide RNAs gRNA37 and gRNA40 or the guide RNAs gRNA37-HM and gRNA-40-HM containing a scaffold with heavy modifications (HM). […] HBsAg, HbeAg, and HBV DNA levels in serum were measured weekly (FIGS. 24A-24C and 25A-25C). […]

Hepatitis B virus [2] = assay: Antiviral efficacy in HBV-infected primary human hepatocytes (HBV-PHH): HBsAg, HBeAg, HBV DNA, 3.5 kb RNA, rebound; type: cell-based; settings: HBV-PHH system, guide RNA + mRNA encoding base editor
Description: (§1) Base editor systems comparing guide RNAs evaluated in Example 1 were subsequently tested for anti-viral and editing efficacy using the Hepatitis B virus-primary human hepatocyte (HBV-PHH) system. Cells were transfected with the guide RNAs and mRNAs encoding the base editor as described in Example 1. […] Guide RNAs ABE-133, MSPbeam94, and ABE-85 were associated with a 70-80% reduction of HBV DNA as compared to controls. The guide RNAs PolyA-NGC1 and PolyA-NGC2 were associated with high editing followed by 90% efficacy in reduction of HbeAg.
The HBV-PHH system for studying the Hepatitis B virus is described, for example, by Winer, et al., “Long-term hepatitis B infection in a scalable hepatic co-culture system,” Nat. Commun. 8:125 (2017) and by Zhou, et al. “Long-term maintenance of human fetal hepatocytes and prolonged susceptibility to HBV infection by co-culture with non-parenchymal cells,” J. Virol Methods, 195:185-93 (2014); and is provided commercially by ImQuest BioSciences (imquestbio.com/programs/virology/hbv/)).
(§2) The design of the experiments is described schematically in FIG. 14. Primary human hepatocyte (PHH) cells were infected with HBV at day 0. At days 4 and 11, the cells were transfected with mRNA encoding BE4 and with gRNA37 and gRNA40. Measurements of HBV DNA were taken over time, and measurements of HBsAg, HBeAG, HBV total DNA, 3.5 kb RNA, and cccDNA editing were taken at day 25. The experiments were carried out using a PHH co-culture system available from PhoenixBio. The PHH co-culture system maintained hepatocyte differentiation and metabolic activity for over 30 days. The HBV infection in the cells was persistent and a cccDNA level was maintained.
(§3) The design of the experiments is described schematically in FIG. 18. Primary human hepatocyte (PHH) cells were infected with HBV at day 0, at day 4 an 8-day. Treatment with lamivudine commenced (which included a 3-day pretreatment period within the 8-day total), and cells were transfected with mRNA encoding BE4 and the gRNAs gRNA37 and gRNA40 at days 7 and 14. HBV DNA levels were measured over time, and additional HBV markers were measured at day 21.
(§4) Primary hepatocytes (PHH) co-cultures infected with HBV were used to test antiviral efficacy of base editing systems. Primary hepatocyte co-culture (PHH) infected with HBV virus is a clinically relevant system for assessing anti-viral activity of base editing systems. The base editing reagents (mRNA encoding a base editor(s) and synthetic gRNA) were transfected via lipofection twice over the course of two weeks. The first transfection was performed about 3, 4, or 7 days after infection (days post infection (dpi)). Not being bound by theory, this 3-to-7-day period ensured that the cccDNA was completely formed at the time of the transfection. The second transfection was at about 7, 10, 11, or 14 days after infection. Extracellular parameters (e.g., HBsAg, HBeAg, and HBV DNA) were monitored over the course of the experiment (including the end of the experiment) and intracellular parameters (HBV DNA, viral RNA, and editing) were measured at the end of the experiment. Cells were lysed at the termination of the experiment (e.g., at 15, 17, 21, or 25 days).
(§5) Transfection details: RNA format, 800 ng total RNA per well in a 24 well plate (600 ng base editor-encoding mRNA+200 ng gRNA) transfected via lipofection (lipofectamin messengerMax, thermofisher Scientific) according to the vendor protocol.

HBV cccDNA = assay: Base editing of HBV cccDNA in primary human hepatocytes (HBV-PHH); type: cell-based, Hepatitis B virus; settings: HBV-PHH system
Description: as §1
Having identified gRNA37 and gRNA40 as effective gRNAs, the antiviral efficacy of a base editor system containing BE4, gRNA37 and gRNA40 (i.e., multiplexing gRNAs) was evaluated, FIGS. 8-10. It was determined that the base editor system multiplexed with the two gRNAs was associated with a reduction of HBV viral parameters in HepG2-NTCP cells, see FIG. 9. […] For the evaluation of editing of cccDNA, the cccDNA was enriched via Hirt extraction and ExoI/ExoIII nuclease treatment to remove rcDNA (relaxed circular DNA). Throughout the Examples provided herein, editing of cccDNA was evaluated using next generation sequencing completed using cccDNA enriched in this way.
as §2, §3, §4, §5

[3] = system: HBV genome in HEK293T cells transduced with a lentiviral vector; assay: Base editing efficiency in Hek293-lentiHBV system (PCR amplicons sequenced on MiSeq); type: cell-based, Hepatitis B virus; design: Editing Efficiency 2 (%): concentration or dose not given beside the values; settings: for Average Editing Efficiency (%): average of 3, base editor Cas12b-ABE; for Average Editing Efficiency (%) / Editing Efficiency 1 (%) / Editing Efficiency 2 (%) / Editing Efficiency 3 (%): plasmid transfection, four days; for Editing Efficiency 1 (%): replicate 1, base editor Cas12b-ABE; for Editing Efficiency 2 (%): replicate 2, base editor Cas12b-ABE; for Editing Efficiency 3 (%): replicate 3, base editor Cas12b-ABE

BE4: cytidine base editor polypeptide, SEQ ID NO: 10832, delivered as mRNA
HBsAg levels (HBV-infected cells): reductions
editing efficiencies at the sites targeted by gRNA37 and gRNA40 (HBV-infected cells): comparable editing efficiencies

C=C1[C@H](CO)[C@@H](O)C[C@@H]1n1cnc2c(=O)[nH]c(N)nc21 [Entecavir]
HBV rebound (serum HBV DNA) (Hepatitis B virus [1]; Entecavir 0.03 mg/kg orally for two weeks then discontinued, LNP 2 mg/kg): rebounds
reduction in serum levels of HBV DNA at day 21 (Hepatitis B virus [1]; Entecavir orally daily days 1-14, base editing reagents day 1 or days 1 and 14): approximately 2 log

B1: ABE-133: guide RNA SEQ ID NO: 5516 (nucleic acid)
guide: GAAGATGAGGCATAGCAGCAGTTTTAGAGCTAGAAATAGCAAGTTAAAATAAGGCTAGTCCGTTATCAACTTGAAAAAGTGGCACCGAGTCGGTGCTTTT
modifications: chemistry not fully specified
HBV markers relative to the no treatment control (cccDNA editing and/or viral replication) (Hepatitis B virus [2]): robust reduction in all HBV markers
cccDNA Editing in PHH A > G % (HBV cccDNA): 76.0%
% Editing average ([3]; base editor VRQR-ABE): 65%

B2: ABE-41: guide RNA SEQ ID NO: 5513 (nucleic acid)
guide: AGAAGATGAGGCATAGCAGCGTTTTAGAGCTAGAAATAGCAAGTTAAAATAAGGCTAGTCCGTTATCAACTTGAAAAAGTGGCACCGAGTCGGTGCTTTT
modifications: chemistry not fully specified
HBV markers relative to the no treatment control (cccDNA editing and/or viral replication) (Hepatitis B virus [2]): robust reduction in all HBV markers
cccDNA Editing in PHH A > G % (HBV cccDNA): 56.0%
% Editing average ([3]; base editor Abe7.10): 58%

B3: PolyA-NGC1: guide RNA SEQ ID NO: 5499 (nucleic acid)
guide: GACCCTTATAAAGAATTTGGGTTTTAGAGCTAGAAATAGCAAGTTAAAATAAGGCTAGTCCGTTATCAACTTGAAAAAGTGGCACCGAGTCGGTGCTTTT
modifications: chemistry not fully specified
HBV markers relative to the no treatment control (cccDNA editing and/or viral replication) (Hepatitis B virus [2]): robust reduction in all HBV markers
efficacy in reduction of HbeAg (Hepatitis B virus [2]): 90%
cccDNA Editing in PHH A > G % (HBV cccDNA): 60.4%
editing (HBV cccDNA): high editing

B4: PolyA-NGC2: guide RNA SEQ ID NO: 5500 (nucleic acid)
guide: TTTATAAGGGTCGATGTCCAGTTTTAGAGCTAGAAATAGCAAGTTAAAATAAGGCTAGTCCGTTATCAACTTGAAAAAGTGGCACCGAGTCGGTGCTTTT
modifications: chemistry not fully specified
HBV markers relative to the no treatment control (cccDNA editing and/or viral replication) (Hepatitis B virus [2]): robust reduction in all HBV markers
efficacy in reduction of HbeAg (Hepatitis B virus [2]): 90%
cccDNA Editing in PHH A > G % (HBV cccDNA): 62.9%
editing (HBV cccDNA): high editing

B5: cas12b-11: guide RNA SEQ ID NO: 381 (nucleic acid)
guide: mG*mU*mU*rCrUrGrUrCrUrUrUrUrGrGrUrCrArGrGrArCrArArCrCrGrUrCrUrArGrCrUrArUrArArGrUrGrCrUrGrCrArGrGrGrUrGrUrGrArGrArArArCrUrCrCrUrArUrUrGrCrUrGrGrArCrGrArUrGrUrCrUrCrUrUrArCrGrArGrGrCrArUrUrArGrCrArCrCrArCrCrUrGrUrArUrUrCrCrCrArUrCrCrCrArU
HBV markers relative to the no treatment control (cccDNA editing and/or viral replication) (Hepatitis B virus [2]): robust reduction in all HBV markers
Average Editing Efficiency (%) [3]: 58.03%
Editing Efficiency 1 (%) [3]: 44.34%
Editing Efficiency 2 (%) [3]: 60.28%
Editing Efficiency 3 (%) [3]: 69.47%

B6: cas12b-152: guide RNA SEQ ID NO: 5523 (nucleic acid)
guide: GUUCUGUCUUUUGGUCAGGACAACCGUCUAGCUAUAAGUGCUGCAGGGUGUGAGAAACUCCUAUUGCUGGACGAUGUCUCUUACGAGGCAUUAGCACAGAGAAGUCCACCACGAGUC
modifications: listed as RNA, chemistry not fully specified
HBV markers relative to the no treatment control (cccDNA editing and/or viral replication) (Hepatitis B virus [2]): robust reduction in all HBV markers
% Editing average ([3]; base editor Cas12b-ABE): 54%

B7: cas12b-5: guide RNA SEQ ID NO: 380 (nucleic acid)
guide: mG*mU*mU*rCrUrGrUrCrUrUrUrUrGrGrUrCrArGrGrArCrArArCrCrGrUrCrUrArGrCrUrArUrArArGrUrGrCrUrGrCrArGrGrGrUrGrUrGrArGrArArArCrUrCrCrUrArUrUrGrCrUrGrGrArCrGrArUrGrUrCrUrCrUrUrArCrGrArGrGrCrArUrUrArGrCrArCrUrCrGrCrUrGrGrArUrGrUrGrUrCrUrGrCrGrGrC
Average Editing Efficiency (%) [3]: 0.54%
Editing Efficiency 1 (%) [3]: 0.12%
Editing Efficiency 2 (%) [3]: 0.36%
Editing Efficiency 3 (%) [3]: 1.14%
